Reference: US20200123264A1 (Regeneron, published 2020)

B1: H4H18440P2 (antibody, human IgG4, V domains shown)
VH: QVQLVESGGGMVKPGGSLRLSCAASGFTFSDYYMSWIRQAPGKGLEWISHISITGSTIYYADSVKGRFTISRDNAKNSLYLEMNRLRDEDTAVYYCTRDEPDIVLVRYGMDVWGQGTTVTVSS
VL: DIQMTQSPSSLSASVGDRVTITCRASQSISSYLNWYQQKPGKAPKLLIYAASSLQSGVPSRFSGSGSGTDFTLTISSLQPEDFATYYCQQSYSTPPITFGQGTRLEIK
notes: H4H prefix: human IgG4 Fc
B2: H4H18462P2 (antibody, human IgG4, V domains shown)
VH: EVQLVESGGDLVQPGRSLRLSCAASGFTFSSFAMSWVRQAPGRGLEWVSSLSDSGDNTYYADSVKGRFTISRDNSKNTLYLQMNNLRAEDTAVYYCAKDLFSGWLFHGFDVWGQGTMVTVSS
VL: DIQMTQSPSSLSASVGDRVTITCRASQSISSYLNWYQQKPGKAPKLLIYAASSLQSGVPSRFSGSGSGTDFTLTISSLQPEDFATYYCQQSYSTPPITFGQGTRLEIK
notes: H4H prefix: human IgG4 Fc
B3: H4H18439P2 (antibody, human IgG4, V domains shown)
VH: QLQLQESGPGLVKPSETLSLTCIVSGGDITSSSYYWNWIRQPPGKGLEWIGNIYYSGSTNYNPSLKSRVTISIDTSKSQFSLKLRSVTAADTAVYYCARLLRYFDWSKGYLDYWGQGTLVTVSS
VL: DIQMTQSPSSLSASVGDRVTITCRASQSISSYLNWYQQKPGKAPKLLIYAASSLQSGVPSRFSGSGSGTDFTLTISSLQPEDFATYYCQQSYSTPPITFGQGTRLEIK
notes: H4H prefix: human IgG4 Fc
B4: H4H18464P2 (antibody, human IgG4, V domains shown)
VH: QVQLVQSGPEVKKPGASVKVSCKGSGYTFSWYGISWIRQAPGHGLEWMGWISASSGNTRFAQKVQGRLTMTTDTSTSTAYMELRSLRSDDTAVYYCARTGTRPFDYWGQGTLVTVSS
VL: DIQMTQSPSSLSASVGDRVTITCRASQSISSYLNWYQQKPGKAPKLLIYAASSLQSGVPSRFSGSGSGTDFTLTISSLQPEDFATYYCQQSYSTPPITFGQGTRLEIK
notes: H4H prefix: human IgG4 Fc
B5: H4H18457P2 (antibody, human IgG4, V domains shown)
VH: EVQLVESGGSVVRPGESLRLSCAASGFTFDDYGMSWVRQAPGKGLEWVSGISWNGGITVYADSVKGRFTVSRDNAKNSLYLQMNSLRAEDTALYHCARARYGGADYWGQGTLVTVSS
VL: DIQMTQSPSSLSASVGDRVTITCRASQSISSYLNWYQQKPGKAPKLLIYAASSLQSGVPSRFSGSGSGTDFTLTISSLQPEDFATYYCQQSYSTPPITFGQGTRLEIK
notes: H4H prefix: human IgG4 Fc
B6: H4H18466P2 (antibody, human IgG4, V domains shown)
VH: EVQLVESGGGLVQPGGSLRLSCTASGFTFSSYGLHWVRQAPGKGLEYVSSINHNGGSKYYADSVKGRFTISRDNSKNTLFLQMGSLKTEDMAVYYCARDLFLEWLFHGFDIWGQGTMVTVSS
VL: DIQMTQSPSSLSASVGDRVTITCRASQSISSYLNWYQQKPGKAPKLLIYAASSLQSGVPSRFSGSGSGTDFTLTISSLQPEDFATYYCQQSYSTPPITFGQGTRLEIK
notes: H4H prefix: human IgG4 Fc
B7: H4H18437P2 (antibody, human IgG4, V domains shown)
VH: QVQLVESGGGVVQPGRSLRLSCAASGFTFSSYGIHWVRQAPGKGLEWVAVISYDGNNKYYADSVKGRFTISRDNSKNTLYLQMNSLRAEDTAVYYCAKDLFLEWLFHGMGVWGQGTTVTVSS
VL: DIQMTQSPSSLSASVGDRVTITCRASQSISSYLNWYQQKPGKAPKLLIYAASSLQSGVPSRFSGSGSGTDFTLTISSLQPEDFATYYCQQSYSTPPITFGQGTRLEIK
notes: H4H prefix: human IgG4 Fc
B8: H4H17322P2 (antibody, human IgG4, V domains shown)
VH: QLQLQESGPGLVKPSETLSLTCTVSGASISSSRFYGGWIRQPPGKGLEWIGDIYYSGNTYYNPSLQSRVTISVDTSKNQFSLKLSSVTAADTAVYYCARHLMITFGGLIVEGFDIWGQGTMVTVSS
VL: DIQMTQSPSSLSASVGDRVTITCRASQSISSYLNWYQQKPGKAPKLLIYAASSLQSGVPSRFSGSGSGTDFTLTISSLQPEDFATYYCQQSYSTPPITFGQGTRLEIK
notes: H4H prefix: human IgG4 Fc

What follows are binders tested against T1, extracellular domain of human LEPR with an N-terminal myc-myc tag, GPI-anchored on HEK293 cells (human, UniProt P48357 22-839, GPI anchor at the C-terminus ; A GPI anchor is attached at the C end through a carboxypeptidase M derived peptide. The protein is displayed on HEK293 cells.) (assay: FACS, 10 nM Ab, HEK293/hLEPR-GPI cells, no added Leptin).
T1 construct: also called HEK293/hLEPR-GPI; Mycx2-hLEPR(Ecto)-GPI
T1 sequence: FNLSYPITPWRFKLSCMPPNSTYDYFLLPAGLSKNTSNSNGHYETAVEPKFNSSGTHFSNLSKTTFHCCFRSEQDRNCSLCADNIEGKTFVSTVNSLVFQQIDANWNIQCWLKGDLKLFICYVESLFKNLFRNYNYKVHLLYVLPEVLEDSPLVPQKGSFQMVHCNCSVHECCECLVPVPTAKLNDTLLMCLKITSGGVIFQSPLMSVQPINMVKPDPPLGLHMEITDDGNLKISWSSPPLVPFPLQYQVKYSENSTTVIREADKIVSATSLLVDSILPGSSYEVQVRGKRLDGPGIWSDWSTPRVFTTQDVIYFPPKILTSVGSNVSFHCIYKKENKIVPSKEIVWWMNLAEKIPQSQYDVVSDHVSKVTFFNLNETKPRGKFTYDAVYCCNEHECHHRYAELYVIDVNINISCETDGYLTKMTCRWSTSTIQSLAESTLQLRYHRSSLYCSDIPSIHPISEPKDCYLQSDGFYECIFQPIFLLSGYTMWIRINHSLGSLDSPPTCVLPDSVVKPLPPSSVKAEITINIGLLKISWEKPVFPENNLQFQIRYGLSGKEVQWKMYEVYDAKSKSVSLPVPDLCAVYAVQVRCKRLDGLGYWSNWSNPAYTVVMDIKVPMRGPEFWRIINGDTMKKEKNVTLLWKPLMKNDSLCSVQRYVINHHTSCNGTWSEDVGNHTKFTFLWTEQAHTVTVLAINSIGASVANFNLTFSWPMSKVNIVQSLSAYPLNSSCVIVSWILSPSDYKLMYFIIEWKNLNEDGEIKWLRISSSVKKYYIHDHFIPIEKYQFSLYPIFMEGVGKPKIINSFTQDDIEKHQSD
Description: (§1) For the FACS analysis, HEK293 parental cells and HEK293/hLEPR-GPI cells were dissociated and plated onto 96-well v-bottom plates at 5×10⁵ cells/well in PBS containing 2% FBS (FACS buffer). […] Cells were subsequently fixed using BD CytoFix™ (Becton Dickinson, #554655), filtered, and analyzed on a HyperCyt Flow Cytometer (Beckman Coulter). Unstained and secondary antibody alone controls were also tested for all cell lines. The results were analyzed using ForeCyt (IntelliCyt) and FlowJo version 10 softwares to determine the geometric means of fluorescence for viable cells. The geometric mean of fluorescence for each sample was then normalized to the geometric mean of unstained cells to obtain relative binding per condition referred to as “binding ratios”, and these binding ratios were recorded in Table 14 for each antibody tested.

Binder | Binding Ratio (normalized to unstained) [fold]
B1 | 1640
B2 | 1170
B3 | 1530
B4 | 2320
B5 | 3190
B6 | 824

What follows are binders tested against T2, extracellular domain portion of LEPR protein expressed with a C-terminal human Fc tag (human) (assay: competition ELISA, 500 nM Ab, 10 nM hLEPR-hFc binding to coated hLeptin).
T2 construct: Dimeric construct; also called hLEPR.hFc; hLEPR-hFc
Description: These antibody-protein or protein-protein complexes were then incubated for 1.5 hour at room temperature (RT). […] Samples were developed with a TMB solution (BD Biosciences, #555214; substrate A and B mixed at 1:1 ratio as per manufacturer's instructions) to produce a colorimetric reaction and then neutralized with 1M sulfuric acid before measuring absorbance at 450 nm on a Victor X5 plate reader. Data analysis was performed using a sigmoidal dose-response model within Prism™ software (Graph Pad).

Binder | % blockade [%]
B1 | 3
B2 | 14
B3 | -1
B4 | -5
B5 | 4
B7 | 9
B8 | 13
B6 | 2

The binders below were run against T1, extracellular domain of human LEPR with … (assay: FACS, 10 nM Ab, HEK293/hLEPR-GPI cells, 1 µM Leptin).
Description: as §1

Binder | Binding Ratio (normalized to unstained) [fold]
B1 | 2560
B2 | 759
B3 | 2480
B4 | 3590
B5 | 3110
B6 | 398
